Laboratory results from article doi:10.1101/2024.10.11.617635 (bioRxiv, 2024).

Target: the molecule itself

B1: NADK (non-methylated; construct not stated) (enzyme, human, UniProt O95544 1-446, looked up)
chain: MEMEQEKMTMNKELSPDAAAYCCSACHGDETWSYNHPIRGRAKSRSLSASPALGSTKEFRRTRSLHGPCPVTTFGPKACVLQNPQTIMHIQDPASQRLTWNKSPKSVLVIKKMRDASLLQPFKELCTHLMEENMIVYVEKKVLEDPAIASDESFGAVKKKFCTFREDYDDISNQIDFIICLGGDGTLLYASSLFQGSVPPVMAFHLGSLGFLTPFSFENFQSQVTQVIEGNAAVVLRSRLKVRVVKELRGKKTAVHNGLGENGSQAAGLDMDVGKQAMQYQVLNEVVIDRGPSSYLSNVDVYLDGHLITTVQGDGVIVSTPTGSTAYAAAAGASMIHPNVPAIMITPICPHSLSFRPIVVPAGVELKIMLSPEARNTAWVSFDGRKRQEIRHGDSISITTSCYPLPSICVRDPVSDWFESLAQCLHWNVRKKQAHFEEEEEEEEEG
stoichiometry N: 4

B2: methylated NADK (construct not stated) (enzyme, human, UniProt O95544 1-446, looked up)
chain: B1 chain
modifications: arginine methylation (the paper's sites are R39, R41 and R45, mono- and di-methylated); extent not stated
stoichiometry N: 4
